The data set deals with T1, LPG10159 (Contaminated/multiple).
T1 sequence: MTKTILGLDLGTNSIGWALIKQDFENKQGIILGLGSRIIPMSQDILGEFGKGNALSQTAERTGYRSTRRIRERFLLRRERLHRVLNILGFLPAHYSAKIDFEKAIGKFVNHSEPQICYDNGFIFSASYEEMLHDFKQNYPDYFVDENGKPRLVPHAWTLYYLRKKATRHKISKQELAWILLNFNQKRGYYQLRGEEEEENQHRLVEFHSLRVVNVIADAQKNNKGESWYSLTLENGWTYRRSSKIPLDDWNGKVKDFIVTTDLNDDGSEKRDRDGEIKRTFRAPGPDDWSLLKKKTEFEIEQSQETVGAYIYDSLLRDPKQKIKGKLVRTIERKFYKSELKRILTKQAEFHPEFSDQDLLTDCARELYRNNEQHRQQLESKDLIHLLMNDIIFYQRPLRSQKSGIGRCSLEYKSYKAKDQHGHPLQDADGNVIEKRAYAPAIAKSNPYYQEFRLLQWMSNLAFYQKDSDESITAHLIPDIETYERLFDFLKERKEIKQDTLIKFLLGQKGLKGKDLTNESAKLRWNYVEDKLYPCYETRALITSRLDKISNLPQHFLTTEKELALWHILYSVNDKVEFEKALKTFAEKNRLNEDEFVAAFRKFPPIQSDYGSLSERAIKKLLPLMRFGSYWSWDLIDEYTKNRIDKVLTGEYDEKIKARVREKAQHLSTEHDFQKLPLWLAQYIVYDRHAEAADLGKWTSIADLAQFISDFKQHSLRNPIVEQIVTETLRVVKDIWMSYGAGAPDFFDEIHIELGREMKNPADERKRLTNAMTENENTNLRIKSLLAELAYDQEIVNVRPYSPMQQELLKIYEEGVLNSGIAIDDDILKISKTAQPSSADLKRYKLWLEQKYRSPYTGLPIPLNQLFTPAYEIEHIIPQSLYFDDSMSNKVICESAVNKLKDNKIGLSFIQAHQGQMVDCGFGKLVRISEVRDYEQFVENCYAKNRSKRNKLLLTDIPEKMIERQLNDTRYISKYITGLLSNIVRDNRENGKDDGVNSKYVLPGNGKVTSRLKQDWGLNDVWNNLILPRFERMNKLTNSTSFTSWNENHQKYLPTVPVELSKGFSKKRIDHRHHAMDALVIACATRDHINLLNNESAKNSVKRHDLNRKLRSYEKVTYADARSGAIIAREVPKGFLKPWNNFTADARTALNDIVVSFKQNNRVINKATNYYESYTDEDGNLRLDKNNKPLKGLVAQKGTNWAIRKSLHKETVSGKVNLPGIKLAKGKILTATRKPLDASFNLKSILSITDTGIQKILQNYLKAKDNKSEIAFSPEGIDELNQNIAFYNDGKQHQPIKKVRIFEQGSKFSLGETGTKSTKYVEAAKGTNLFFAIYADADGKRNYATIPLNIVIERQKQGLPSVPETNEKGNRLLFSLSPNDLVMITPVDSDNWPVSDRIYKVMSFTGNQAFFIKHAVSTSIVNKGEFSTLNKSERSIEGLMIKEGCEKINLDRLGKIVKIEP
In words: cleavage_in_vitro. As to conditions: PAM SEQ ID 83.

“GUUGUGAAUUGCUUUAAAGAAAGCAAUUCACAAUAAGGAUUAUUCCGUUGUGAAAACAUCUAGCGCCUCGUCUAUCUACGGGGCAUUUU / GATATAGACGTTGTGGCTGTTGTAGTAGAAATTC / GAATTTCTACTACAACAGCCACAACGTCTATATC [LPG10159 sgRNA L2 ; Library 2 target AGAAATTC]” had an activity (% target strand cleaved) of 2.5.

These data come from patent US20240376455.
